Laboratory results published in publication PMC7515728, “YdiV regulates Escherichia coli ferric uptake by manipulating the DNA-binding ability of Fur in a SlyD-dependent manner” (Nucleic Acids Research, 2020).

Key:
[1] = target: Fur in the bacterial two-hybrid plasmid pUT18C-fur (Escherichia coli) (UniProt P0A9A9); test: two-hybrid; bacterial two-hybrid by reconstitution of adenylate cyclase (T18/T25) in E. coli BTH101; LB-X-Gal plates and β-galactosidase assay (Miller method)
Zn1Fur = target: T1, Zn1Fur (Escherichia coli, UniProt P0A9A9 1-148); test: FP; EDTA-treated Fur, no Mn2+ added; EMSA: 10 mM Tris-HCl pH 7.5, 1 mM MgCl2, 40 mM KCl, 0.1 mg/ml BSA, 5% glycerol, +/-100 uM MnCl2, 25 nM DNA, 37 C 15 min; FP: 10 mM Tris-HCl pH 7.5, 75 mM NaCl; conditions: protein: recombinant; tags: N-terminal His (PreScission-cleavable, removed if necessary); chain copies: 2; label: FAM; blunt
T1 sequence: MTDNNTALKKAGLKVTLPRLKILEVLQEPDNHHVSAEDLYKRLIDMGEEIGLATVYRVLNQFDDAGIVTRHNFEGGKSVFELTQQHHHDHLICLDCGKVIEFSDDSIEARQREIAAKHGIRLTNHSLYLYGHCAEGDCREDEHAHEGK

Fur P18A = target: T2, Fur P18A (Escherichia coli, UniProt P0A9A9 1-148, P18A); test: EMSA; 100 uM MnCl2; 30 uM protein; EMSA: 10 mM Tris-HCl pH 7.5, 1 mM MgCl2, 40 mM KCl, 0.1 mg/ml BSA, 5% glycerol, +/-100 uM MnCl2, 25 nM DNA, 37 C 15 min; FP: 10 mM Tris-HCl pH 7.5, 75 mM NaCl; conditions: protein: recombinant; tags: N-terminal His (PreScission-cleavable, removed if necessary); chain copies: 2; label: FAM; blunt
T2 sequence: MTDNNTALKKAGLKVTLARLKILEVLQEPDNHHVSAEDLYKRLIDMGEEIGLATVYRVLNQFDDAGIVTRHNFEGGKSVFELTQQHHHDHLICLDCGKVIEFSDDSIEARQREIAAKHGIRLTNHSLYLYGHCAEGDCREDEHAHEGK

Fur P18AYdiV = target: T3, Fur P18AYdiV (Escherichia coli, UniProt P0A9A9 1-148, P18A); test: as above; conditions: protein: recombinant; tags: N-terminal His (PreScission-cleavable, removed if necessary); chain copies: 2; label: FAM; blunt
T3 sequence: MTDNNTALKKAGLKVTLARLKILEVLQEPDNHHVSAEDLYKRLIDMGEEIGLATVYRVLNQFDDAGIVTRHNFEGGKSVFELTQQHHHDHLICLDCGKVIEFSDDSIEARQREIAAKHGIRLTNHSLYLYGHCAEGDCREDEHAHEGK

Fur P18ASlyD = target: T4, Fur P18ASlyD (Escherichia coli, UniProt P0A9A9 1-148, P18A); test: as above; conditions: protein: recombinant; tags: N-terminal His (PreScission-cleavable, removed if necessary); chain copies: 2; label: FAM; blunt
T4 sequence: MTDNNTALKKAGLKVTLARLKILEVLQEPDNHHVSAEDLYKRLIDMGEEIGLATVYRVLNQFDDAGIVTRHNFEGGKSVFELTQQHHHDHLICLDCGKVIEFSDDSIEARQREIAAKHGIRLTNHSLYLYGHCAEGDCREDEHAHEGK

Fur P29A = target: T5, Fur P29A (Escherichia coli, UniProt P0A9A9 1-148, P29A); test: as above; conditions: protein: recombinant; tags: N-terminal His (PreScission-cleavable, removed if necessary); chain copies: 2; label: FAM; blunt
T5 sequence: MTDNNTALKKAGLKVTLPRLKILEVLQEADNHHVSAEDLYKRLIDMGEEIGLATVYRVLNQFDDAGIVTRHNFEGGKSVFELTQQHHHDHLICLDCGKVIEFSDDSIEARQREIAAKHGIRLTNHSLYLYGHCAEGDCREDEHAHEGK

[2] = target: the molecule itself; test: SEC; Superdex 200, 10 mM Tris-HCl pH 8.0, 100 mM NaCl, proteins at 100-200 uM, 4°C; 62 kDa and 27 kDa proteins as markers

SlyD in the bacterial two-hybrid plasmid pKNT25-slyD (from UniProt P0A9K9 1-196) (natural protein)
interaction strength relative to the negative control (β-galactosidase) (times the negative control) [1]: 6

YdiV in the bacterial two-hybrid plasmid pKNT25-ydiV (from UniProt P76204 1-237) (natural protein)
interaction strength relative to the negative control (β-galactosidase) (times the negative control) [1]: 3

B1: Fur box DNA (dsDNA)
DNA 1: GATAATGATAATGATAATGATAATGATAATGA
DNA 2: TCATTATCATTATCATTATCATTATCATTATC
Kd (Zn1Fur): 7.2 µM | binding result (Fur P18A): binds | binding result (Fur P18AYdiV): binds | binding result (Fur P18ASlyD): binds | binding result (Fur P29A): binds

B2: native Fur protein (ferric uptake regulator, overexpressed without YdiV) (natural protein, Escherichia coli, UniProt P0A9A9 1-148, looked up)
chain: MTDNNTALKKAGLKVTLPRLKILEVLQEPDNHHVSAEDLYKRLIDMGEEIGLATVYRVLNQFDDAGIVTRHNFEGGKSVFELTQQHHHDHLICLDCGKVIEFSDDSIEARQREIAAKHGIRLTNHSLYLYGHCAEGDCREDEHAHEGK
notes: Ferric uptake regulator Fur, Escherichia coli, from plasmid pGL01fur; In the pull-down for mass spectrometry Fur was held on Ni-NTA by its N-terminal His-tag and then released by PreScission cleavage; printed mass 17 089 Da per monomer; also called Zn1Fe1Fur; source: E. coli BL21 harboring pGL01fur; in lysate on Ni-NTA (pull-down) and purified (Ni-NTA, Superdex 200); not shown: His-tag, …
stoichiometry N [2]: 2

B3: Fur^YdiV protein (Fur co-expressed with untagged YdiV) (natural protein, Escherichia coli, UniProt P0A9A9 1-148, looked up)
chain: MTDNNTALKKAGLKVTLPRLKILEVLQEPDNHHVSAEDLYKRLIDMGEEIGLATVYRVLNQFDDAGIVTRHNFEGGKSVFELTQQHHHDHLICLDCGKVIEFSDDSIEARQREIAAKHGIRLTNHSLYLYGHCAEGDCREDEHAHEGK
notes: Ferric uptake regulator Fur, Escherichia coli, from plasmid pGL01fur, co-expressed with YdiV; also called Zn1Fe1Fur^YdiV; source: E. coli BL21 harboring pGL01fur and pACYCydiV; in lysate on Ni-NTA (pull-down) and purified (Ni-NTA, Superdex 200); not shown: His-tag, N-terminal, kept
stoichiometry N [2]: 2
